Source: the supplement of paper PMC7877785
± gives the uncertainty stated by the source.

Assay: self-splicing fitness, log relative to wild type (ln ratio); higher = more splicing; Tetrahymena group I intron in knt gene, E. coli kanamycin selection, DiMSum; sequences stand for … in CUCUCU…GGAGGGAAAAGUUAUCAGGCAUGCACCUGGUAGCUAGUCUUUAAACCAAUAGAUUGCAUCGGUUUAAAAGGCAAGACCGUCAAAUUGCGGGAAAGGGGUCAACAGCCGUUCAGUACCAAGUCUCAGGGGAAACUUUGAGAUGGCCUUGCAAAGGGUAUGGUAAUAAGCUGACGGACAUGGUCCUAACCACGCAGCCAAGUCCUAAGUCAACAGAUCUUCUGUUGAUAUGGAUGCAGUUCACAGACUAAAUGUCGGUCGGGGAAGAUGUAUUCUUCUCAUAAGAUAUAGUCGGACCUCUCCUUAAUGGGAGCUAGCGGAUGAAGUGAUGCAACACUGGAGCCGCUGGGAACUAAUUUGUAUGCGAAAGUAUAUUGAUUAGUUUUGGAGUACUCGUGGUCG
Summary of the method: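 Six replicate transformations of E. coli BL21(DE3) with a pET-22b(+) library were grown overnight at 37°C or 30°C. The library randomised all eight P1ex-region intron nucleotides, the intron lying in the knt kanamycin-resistance gene, and plates were LB agar with or without 25 μg/mL kanamycin plus 100 μg/mL carbenicillin, 50 μM IPTG and 0.2% rhamnose. Pooled colonies were amplicon-sequenced on an Illumina HiSeq 2500, and fitness is the DiMSum error-weighted combination of wild-type-normalised replicate fold changes, kanamycin versus none.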

Sequence | self-splicing fitness (ln) (30 °C) | self-splicing fitness (ln) (37 °C)
AGUCAGCAAUAUUACGCCCU | -1.1 ± 0.24 | -0.315 ± 0.3
CCGCAGCAAUAUUACGGGUG | -1.22 ± 0.055 | -0.741 ± 0.069
CUCAAGCAAUAUUACGGGCU | -4.09 ± 0.27 | -3 ± 0.26
GCAAAGCAAUAUUACGCGGU | -4.16 ± 0.22 | -2.67 ± 0.24
AGUAAGCAAUAUUACGUGUG | -4.26 ± 0.18 | -2.32 ± 0.12
GGCUAGCAAUAUUACGGGAA | -0.617 ± 0.14 | -1.06 ± 0.2
GUCAAGCAAUAUUACGAUAA | -1.8 ± 0.14 | -1.58 ± 0.15
UCCGAGCAAUAUUACGUGUU | -2.75 ± 0.16 | -2.36 ± 0.15
GAUUAGCAAUAUUACGUAAA | -2.19 ± 0.15 | -0.793 ± 0.19
GCUAAGCAAUAUUACGUGGG | -2.99 ± 0.14 | -1.61 ± 0.13
UGUUAGCAAUAUUACGGUCG | -0.217 ± 0.15 | 0.99 ± 0.18
UUCUAGCAAUAUUACGCUUA | -1.24 ± 0.12 | -0.839 ± 0.14
CAUUAGCAAUAUUACGCCAG | -0.337 ± 0.094 | 0.267 ± 0.12
AACCAGCAAUAUUACGUCAU | -1.23 ± 0.063 | -1.14 ± 0.067
GCAUAGCAAUAUUACGAGUG | -2.77 ± 0.14 | -1.76 ± 0.11
GAUAAGCAAUAUUACGCGUC | -4.66 ± 0.36 | -2.53 ± 0.33
UAAGAGCAAUAUUACGCGCC |  | -1.6 ± 0.38
CAAAAGCAAUAUUACGACGG | 0.122 ± 0.076 | -0.14 ± 0.09
UAAGAGCAAUAUUACGUUGU | -1.95 ± 0.2 | -0.367 ± 0.31
AUGGAGCAAUAUUACGCGCG | -2.41 ± 0.17 | -1.27 ± 0.19
GCGAAGCAAUAUUACGAGGG | -3.77 ± 0.23 | -3.27 ± 0.35
UGUCAGCAAUAUUACGGACC | -0.173 ± 0.15 | -2.33 ± 0.17
CCUAAGCAAUAUUACGCCUG | -3.62 ± 0.3 | -2.27 ± 0.3
UGCAAGCAAUAUUACGGGUC | -3.11 ± 0.24 | -2.11 ± 0.21

Sequence | self-splicing fitness (ln) (30 °C) | self-splicing fitness (ln) (37 °C)
UCGCAGCAAUAUUACGAUAA | -1.91 ± 0.14 | -0.243 ± 0.14
AUACAGCAAUAUUACGAUGC | -1.75 ± 0.11 | -1.17 ± 0.16
AAAAAGCAAUAUUACGCCCA | -0.382 ± 0.12 | -0.253 ± 0.16
ACCAAGCAAUAUUACGUGCA | -0.837 ± 0.065 | -0.466 ± 0.074
CAAUAGCAAUAUUACGCGUA | -2.09 ± 0.18 | -1.85 ± 0.23
UAGCAGCAAUAUUACGUUCU | -1.45 ± 0.1 | -0.606 ± 0.12
GUUCAGCAAUAUUACGCUCA | -0.457 ± 0.11 | -0.298 ± 0.13
CCUGAGCAAUAUUACGAUAG | -1.55 ± 0.085 | -0.775 ± 0.089
AAACAGCAAUAUUACGCUGU | -3.85 ± 0.14 | -1.89 ± 0.096
AGCCAGCAAUAUUACGCGGA | -3.48 ± 0.19 | -2.23 ± 0.12
CGGAAGCAAUAUUACGCACC | -2.4 ± 0.32 | -1.19 ± 0.27
AACGAGCAAUAUUACGUGCU | -3.09 ± 0.21 | -2.16 ± 0.28
GAACAGCAAUAUUACGCUAA | -1.13 ± 0.062 | -0.958 ± 0.075
CUCUAGCAAUAUUACGGUCC | -2.84 ± 0.33 | -2.53 ± 0.36
AGCAAGCAAUAUUACGCGGG | -3.87 ± 0.21 | -3.71 ± 0.26
GGACAGCAAUAUUACGGCCG | -0.0795 ± 0.14 | -0.000523 ± 0.19
UCCUAGCAAUAUUACGGAGA | -0.637 ± 0.072 | -0.626 ± 0.079
UUCCAGCAAUAUUACGAGUU | -3.21 ± 0.13 | -1.6 ± 0.092
CGAGAGCAAUAUUACGAGCU | -4.6 ± 0.42 | -3.02 ± 0.47
AAGAAGCAAUAUUACGCAUC | -1.92 ± 0.22 | -0.986 ± 0.2
UCCUAGCAAUAUUACGACGU | -0.558 ± 0.098 | -0.499 ± 0.11
UCGAAGCAAUAUUACGAAAA | -3.1 ± 0.3 | -1.54 ± 0.21
GUGCAGCAAUAUUACGUCAC |  | -2.14 ± 0.21
UGUUAGCAAUAUUACGAAUC | -2.97 ± 0.48 | 

Sequence | self-splicing fitness (ln) (30 °C) | self-splicing fitness (ln) (37 °C)
AAGCAGCAAUAUUACGUAUA | -2.85 ± 0.19 | -2.69 ± 0.19
CGCUAGCAAUAUUACGCCGG | -3.06 ± 0.29 | -2.24 ± 0.45
AAGCAGCAAUAUUACGGUGA | -0.827 ± 0.1 | -1.15 ± 0.092
AACAAGCAAUAUUACGGCAA | -0.882 ± 0.069 | 0.119 ± 0.077
GUCUAGCAAUAUUACGAGCU | -2.17 ± 0.33 | -0.962 ± 0.23
GGCGAGCAAUAUUACGACGU | -1.36 ± 0.16 | -0.783 ± 0.21
GACCAGCAAUAUUACGGAGC | -0.563 ± 0.077 | -0.0895 ± 0.11
AUCAAGCAAUAUUACGAAUC | -4.76 ± 0.41 | -2.78 ± 0.3
AACUAGCAAUAUUACGUGUG | -1.47 ± 0.051 | -0.869 ± 0.067
AGGGAGCAAUAUUACGACGU | -2.14 ± 0.23 | -1.63 ± 0.19
UUACAGCAAUAUUACGCCUC | -3.31 ± 0.38 | -2.03 ± 0.38
AUGAAGCAAUAUUACGCUUG | -0.527 ± 0.09 | 0.363 ± 0.11
CUAAAGCAAUAUUACGUAGG | -1.15 ± 0.088 | -1.2 ± 0.11
GAAGAGCAAUAUUACGUCAG | -3.58 ± 0.2 | -3.03 ± 0.35
CUAGAGCAAUAUUACGGUGA | -3.58 ± 0.16 | -1.46 ± 0.17
AAUAAGCAAUAUUACGAGCU | -0.949 ± 0.1 | -0.237 ± 0.1
UGAAAGCAAUAUUACGAGUA | -1.45 ± 0.1 | -0.821 ± 0.092
UACCAGCAAUAUUACGAUUG | -2.62 ± 0.084 | -1.35 ± 0.079
CUAGAGCAAUAUUACGGCGU | -4.02 ± 0.26 | -0.833 ± 0.16
AGCAAGCAAUAUUACGGUUU | -1.28 ± 0.051 | -0.398 ± 0.066
AAAAAGCAAUAUUACGUCCU | 0.148 ± 0.065 | 0.294 ± 0.079
UUGUAGCAAUAUUACGCGGG | -3 ± 0.25 | -2.32 ± 0.16
CGCUAGCAAUAUUACGGCCC | -1.74 ± 0.19 | 0.036 ± 0.24
UCAGAGCAAUAUUACGGGGA | -1.48 ± 0.11 | -1.1 ± 0.13

Sequence | self-splicing fitness (ln) (30 °C) | self-splicing fitness (ln) (37 °C)
GGAAAGCAAUAUUACGGUUU | -1.02 ± 0.061 | -0.46 ± 0.082
ACUGAGCAAUAUUACGGCAC | -3.97 ± 0.37 | -2.6 ± 0.29
GGUUAGCAAUAUUACGCGGC | -2.62 ± 0.29 | 
CUCUAGCAAUAUUACGGGUU | -4.28 ± 0.32 | -3.31 ± 0.24
UGGGAGCAAUAUUACGGCCA | -1.58 ± 0.13 | -0.684 ± 0.16
GAAAAGCAAUAUUACGUGAG | -1.53 ± 0.068 | -1.47 ± 0.11
GAUUAGCAAUAUUACGAUGC | -0.852 ± 0.083 | -0.525 ± 0.095
CGCGAGCAAUAUUACGUCAG | -1.19 ± 0.092 | -1.27 ± 0.11
AACUAGCAAUAUUACGGUAC | -3.39 ± 0.28 | -1.9 ± 0.17
GUCGAGCAAUAUUACGGUUA | -2.03 ± 0.49 | 0.142 ± 0.25
CGAAAGCAAUAUUACGUCCC | -0.693 ± 0.14 | -0.0504 ± 0.23
CUAGAGCAAUAUUACGUCAU | -4.42 ± 0.28 | -2.58 ± 0.18
CUGUAGCAAUAUUACGCCGC | -2.54 ± 0.41 | -1.08 ± 0.47
GGGAAGCAAUAUUACGCAGG | -3.02 ± 0.22 | -2.32 ± 0.28
AAUAAGCAAUAUUACGACAC | -1.12 ± 0.16 | -0.462 ± 0.16
AGGGAGCAAUAUUACGUGAC | -2.06 ± 0.3 | -1.15 ± 0.39
CGCAAGCAAUAUUACGAUCG | -1.19 ± 0.1 | -0.342 ± 0.14
UAUAAGCAAUAUUACGUAGA | -1.89 ± 0.11 | -0.959 ± 0.13
UCGCAGCAAUAUUACGAGCG | -1.97 ± 0.12 | -0.806 ± 0.13
CCCUAGCAAUAUUACGGUCA | -2.57 ± 0.18 | -2.65 ± 0.28
UAGCAGCAAUAUUACGUAGA | -2.62 ± 0.072 | -1.11 ± 0.079
GUGAAGCAAUAUUACGACCA | -0.647 ± 0.18 | 0.84 ± 0.19
CCCUAGCAAUAUUACGCAUC | -3.26 ± 0.25 | -2 ± 0.2
GAGUAGCAAUAUUACGUGGG | -3.53 ± 0.24 | -2.94 ± 0.23
